Consider two molecules from PMC3081598 (Journal of the American Chemical Society, 2011).

Experiment in all cases: fluorescence polarisation
For experiment [1], the target named is GLhelix-4, redesigned RGS14 GoLoco motif peptide (UniProt O08773).
Experiment [2] deals with GLhelix-4 with Trp 534 mutated to alanine (UniProt O08773).
The target of experiment [3] is heterotrimeric G-protein alpha subunit Gαi1 in its inactive, GDP-complexed state (UniProt P63096 30-354).
heterotrimeric G-protein alpha subunit Gαi1 in its inactive, GDP-complexed state (UniProt P63096 30-354), sequence (P63096 30-354, one chain of several): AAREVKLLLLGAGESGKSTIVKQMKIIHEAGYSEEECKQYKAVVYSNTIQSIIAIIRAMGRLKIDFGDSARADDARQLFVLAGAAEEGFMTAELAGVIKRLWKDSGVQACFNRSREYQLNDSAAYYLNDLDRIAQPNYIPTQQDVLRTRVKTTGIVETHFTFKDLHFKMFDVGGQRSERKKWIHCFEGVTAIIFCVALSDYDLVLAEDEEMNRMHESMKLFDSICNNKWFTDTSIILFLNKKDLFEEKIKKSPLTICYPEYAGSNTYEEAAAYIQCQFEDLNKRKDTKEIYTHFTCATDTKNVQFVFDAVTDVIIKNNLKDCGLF

Broadly, the Kd is the free concentration of one partner at which half of the binding sites on the other are occupied at equilibrium, for simple one-to-one binding. Read a low Kd as higher affinity. For “heterotrimeric G-protein alpha subunit Gαi1 in its inactive, GDP-complexed state (from UniProt P63096 30-354) (natural protein)”, the Kd is 810 nM in experiment [1] and 1400 nM in experiment [2].

B1: RGS14 GoLoco motif peptide (wildtype, 36 residues) (peptide)
peptide: DIEGLVELLNRVQSSGAHDQRGLLRKEDLVLPEFLQ
On to B1, for which the Kd in experiment [3] was found to be 95 nM.
